B1: biotin-labeled dsDNA (BLI) (dsDNA)
DNA 1: ATTAATATTTTCTTAAACTAATTTAAAAT
DNA 2: ATTTTAAATTAGTTTAAGAAAATATTAAT
B2: wild-type HU with a C-terminal His-tag (Acinetobacter baumannii SK17 histone-like DNA-binding protein HU) (natural protein, UniProt A0ABX6CHP0 1-90, looked up)
chain: MNKSELIDAIAEKGGVSKTDAGKALDATIASITEALKKGDTVTLVGFGTFSVKERAARTGRNPKTGEELQIKATKVPSFKAGKGLKDSVA
notes: cloned whole between NdeI and XhoI of pET-21a(+); also called wt HU; wt; source: E. coli BL21(DE3), purified (Ni-NTA, cation-exchange chromatography); not shown: His6, C-terminal, kept
B3: HU(K13ac), HU acetylated at Lys13, with a C-terminal His-tag (natural protein, Acinetobacter baumannii SK17, UniProt A0ABX6CHP0 1-90, looked up)
chain: B2 chain
modifications: acetyllysine at residue 13
notes: the codon of Lys13 replaced by an amber codon for site-specific incorporation of acetyllysine; also called Lys13-acetylated HU; not shown: His6, C-terminal, kept

How the values were obtained:
[1] = target: HU(K13ac) (C-terminal His-tag) (Acinetobacter baumannii SK17, UniProt A0ABX6CHP0, K13ac); assay: BLI; kon and koff several-fold lower than wt; BLI: 30 mM Tris pH 7.5, 100 mM NaCl, 0.02% Tween20, 0.5 mg/ml BSA, 25°C; EMSA: same buffer, 37°C 1 h, 250 ng DNA in 10 µl, 1% agarose in TAE; AFM: 10 mM HEPES pH 7.5, 4 mM MgCl2; settings: protein: recombinant; chain copies: 2; label: 5'-biotin on strand 1; (only one strand printed)
[2] = target: HU (wt*, without His-tag) (Acinetobacter baumannii SK17, UniProt A0ABX6CHP0); assay: BLI; BLI: 30 mM Tris pH 7.5, 100 mM NaCl, 0.02% Tween20, 0.5 mg/ml BSA, 25°C; EMSA: same buffer, 37°C 1 h, 250 ng DNA in 10 µl, 1% agarose in TAE; AFM: 10 mM HEPES pH 7.5, 4 mM MgCl2; settings: protein: recombinant; tags: none; N-terminal GA remains after TEV cleavage; chain copies: 2; label: 5'-biotin on strand 1; (only one strand printed)
[3] = target: HU (wt, C-terminal His-tag) (Acinetobacter baumannii SK17, UniProt A0ABX6CHP0); assay: as above; settings: protein: recombinant; chain copies: 2; label: 5'-biotin on strand 1; (only one strand printed)
[4] = target: the molecule itself; assay: SEC; analytical size-exclusion chromatography, Superdex 75 10/300 GL, PBS, 0.5 ml/min; size judged against ovalbumin (44 kDa) and myoglobin (17 kDa) markers

| Binder | Kd [1] [nM] | Kd [2] [nM] | Kd [3] [nM] | stoichiometry N [4] |
| --- | --- | --- | --- | --- |
| B1 | 184 ± 9.3 | 276 ± 143 | 349 ± 352 |  |
| B2 |  |  |  | 2 |
| B3 |  |  |  | 2 |
